# Data reported in patent US6642353B1, “Peptide ligands for the erythropoietin receptor” (Chugai Seiyaku Kabushiki Kaisha, priority 2000, dated 2003).
# Positions of bridges follow the written chain, without caps; N, C: chain ends. Residues, ends and D or L forms follow the SMILES beside them. No end group written: not given here.
# T1: chimeric Ig-EPOR protein (human; murine, UniProt P19235 25-250)
# T1 construct: extracellular domain; Secreted from COS-7 cells transfected with pcDNA3-IgG1-EPOR; major species about 59 kDa; also called IgG-EPOR; chimeric receptor; not shown: hinge region, CH2 and CH3 domains of the murine IgG1 heavy chain
# T1 sequence (looked up): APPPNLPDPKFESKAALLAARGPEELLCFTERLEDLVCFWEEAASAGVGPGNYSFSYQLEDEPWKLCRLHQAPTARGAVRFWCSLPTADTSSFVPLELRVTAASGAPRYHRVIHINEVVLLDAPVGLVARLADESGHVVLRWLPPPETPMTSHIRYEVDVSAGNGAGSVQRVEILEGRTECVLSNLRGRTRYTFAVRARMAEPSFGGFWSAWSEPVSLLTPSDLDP
# Target: T1, chimeric Ig-EPOR protein
# Assay: phage ELISA, relative to ERB1
# Settings: not given
# Description: (§1) To better characterize the phage isolates having binding specificity for the EPOR, we compared the relative affinities of the binding clones presented in FIG. 4, using a phage ELISA procedure. Phage stocks of the binding clones were titered in triplicate to accurately determine the concentration of pfu/ml for each lysate. Different isolates were then assayed by ELISA using normalized phage concentrations so that all clones were tested using equivalent numbers of phage.
row,Molecule,"relative affinity (Rel. Aff., ERB1 = 1.0)"
1,GLNICRPGWVGHCNDSLRDEYATNPRTPGPLSYNLQPT (not shown: M13 phage pIII coat protein) [phage clone N8],< 0.1
2,DLNVGCPGYVGHCADWLGDEYPVHPNPEVPQTLNLKPH (not shown: M13 phage pIII coat protein) [phage clone N3],< 0.1
3,DFEGSLREWDGDWPEWLRDEYARPSYPNPHKANQKPP (not shown: M13 phage pIII coat protein) [phage clone N10],< 0.1
4,EWVYSRQSWGGQWKDGVRDEYTMTPGDPVANKYSLMTP (not shown: M13 phage pIII coat protein) [phage clone N6],< 0.1
5,DIAVCRGGCVGLCEEGLRDEYACNVKKPVPHSYKLNTP (not shown: M13 phage pIII coat protein) [phage clone N13],< 0.1
6,ELDMLRGGGVGQSKESLRDEYDHKTSTPVPPNQKLPPP (not shown: M13 phage pIII coat protein) [phage clone N4],< 0.1
7,EFVVWPRGWVGHCKGCRVDEYSGDPSNLEAQTHDMNFQ (not shown: M13 phage pIII coat protein) [phage clone N7],< 0.1
8,GWAGCRSGGAGQCKEGAGDEYAENPSYPVPPRKHLNRL (not shown: M13 phage pIII coat protein) [phage clone N2],< 0.1
9,SVDVCNQGGVGRCNDGLGDEYASKPSYQEAPRYNPNLR (not shown: M13 phage pIII coat protein) [phage clone N9],< 0.1
10,RLEDGDEGRVWHSSDLLSDEYASTPSYPLTPNYYEYPP (not shown: M13 phage pIII coat protein) [phage clone N1],< 0.1
11,DVEVGRRACVGYCQEFLRDEYTATPSYPDKHSNYLNPP (not shown: M13 phage pIII coat protein) [phage clone N12],< 0.1
12,NSDVTRRGWADHWREWNWDEYASTPTHPASHSSYLNPP (not shown: M13 phage pIII coat protein) [phage clone N5],< 0.1
13,ALDVGRWDGVGHCKGCLKDEYTTLDSKNNPQISQVSPT (not shown: M13 phage pIII coat protein) [phage clone N11],< 0.1

# Target: T2, chimeric Ig-EPOR protein (Homo sapiens, UniProt P19235)
# T2 construct: a fusion protein having domains corresponding to murine IgG1 and the extracellular domain (ECD) of the human EPOR; made in house; secreted into the medium
# Assay: peptide inhibition ELISA (binding of Ig-EPOR to EPO-coated plates)
# Settings: not given
# Description: The wells were washed three times with PBS containing 0.05% (v/v) TWEEN® 20 non-ionic detergent, and then blocked with 1% (w/v) BSA and 0.05% TWEEN® 20 in PBS (blocking buffer) to prevent non-specific binding. Excess blocking buffer was removed by washing once. Culture media was serially diluted in blocking buffer, and 50 μl from each dilution was added to the coated and blocked wells. Wells receiving undiluted media served as a control. A set of uncoated wells also received the diluted cell-free media. Plates were then incubated for 2 hours at room temperature, and washed three times as described above. After removing unbound chimeric receptor by washing, bound chimeric protein was assayed using 100 μl of the HRP labeled anti-murine IgG antibody, substantially as described above. Color development was initiated by addition of 100 μl of the TMB peroxidase substrate, and the extent of the peroxidase reaction measured spectrophotometrically at 450 nm and 650 nm, as described above.
# Synthetic peptides having the sequences […] (SEQ ID NO:81), and […] (SEQ ID NO:82) were synthesized in the cyclic (disulfide-bonded) form using standard procedures (Peninsula Laboratories, Belmont, Calif.). The 18-mer peptide sequences were derived from the B7 and B8 clones, and the peptides are referred to herein as “ERB1-7” (SEQ ID NO:81) and “ERB1-8” (SEQ ID NO:82), respectively. The structures of the two purified peptides, each being greater than 95% pure as judged by HPLC, were confirmed by mass spectrometry. […] Such synthetic peptides are EPO mimetics.
# Synthetic peptides corresponding to the sequence of ERB1-7, but missing either one, two, three or four N-terminal amino acids were tested in the peptide inhibition ELISA protocol. The following peptides were synthesized and tested substantially as described in Example 8: 18-mer peptide ERB1-7, consisting of […] (SEQ ID NO:81);
row,Molecule,IC50 [nM]
1,CC(C)C[C@H](NC(=O)[C@H](Cc1c[nH]c2ccccc12)NC(=O)[C@H](Cc1ccc(O)cc1)NC(=O)[C@H](CC(N)=O)NC(=O)[C@@H]1CSSC[C@H](NC(=O)[C@H](C)NC(=O)[C@H](CCC(=O)O)NC(=O)[C@@H](NC(=O)[C@@H](N)CC(=O)O)C(C)C)C(=O)NCC(=O)NCC(=O)NCC(=O)N[C@@H](Cc2c[nH]c3ccccc23)C(=O)N[C@@H](C(C)C)C(=O)NCC(=O)N[C@@H](Cc2c[nH]cn2)C(=O)N1)C(=O)N[C@@H](CCCNC(=N)N)C(=O)O [ERB1-8] (H-DVEACGGGWVGHCNYWLR-OH; disulfide 5-13; N-terminus and C-terminus assumed),~45
2,CC(C)[C@@H]1NC(=O)[C@H](Cc2c[nH]c3ccccc23)NC(=O)CNC(=O)[C@H](CCCNC(=N)N)NC(=O)[C@H](CCCNC(=N)N)NC(=O)[C@@H](NC(=O)CNC(=O)[C@H](CCC(=O)O)NC(=O)[C@H](CCCNC(=N)N)NC(=O)[C@@H](N)CC(=O)O)CSSC[C@@H](C(=O)N[C@@H](CCCCN)C(=O)N[C@@H](C)C(=O)N[C@@H](Cc2c[nH]c3ccccc23)C(=O)N[C@@H](Cc2ccccc2)C(=O)N[C@@H](CC(N)=O)C(=O)O)NC(=O)[C@H](CCC(N)=O)NC(=O)CNC1=O [ERB1-7] (H-DREGCRRGWVGQCKAWFN-OH; disulfide 5-13; N-terminus and C-terminus assumed),~45

# Same assay, conditions: N-terminal truncations of ERB1-7
row,Molecule,EPOR binding activity
1,GCRRGWVGQCKAWFN [7N-3],abolished EPOR binding activity
2,CRRGWVGQCKAWFN [7N-4],abolished EPOR binding activity

# Target: T1, chimeric Ig-EPOR protein
# Assay: phage ELISA with normalized phage concentrations
# Settings: not given
# Description: as §1
row,Molecule,fold affinity relative to the parent ERB1 clone [fold]
1,DVEACGGGWVGHCNYWLRDEYASKPIKQVPPGNHNQPS (not shown: M13 phage pIII coat protein) [phage clone B8],~20
2,DREGCRRGWVGQCKAWFNDEYAKPPKKPFRNSYSLGPA (not shown: M13 phage pIII coat protein) [phage clone B7],~20

# Target: T1, chimeric Ig-EPOR protein
# Assay: biopanning of the ERB1 evolved library with Ig-EPOR (FIG. 4)
# Settings: not given
# Description: The beads were washed three times in TBST (Tris buffered saline containing 0.1% (v/v) TWEEN® 20) and then suspended in 1 ml blocking medium (TBS SUPERBLOCK®). Phage in 100 μl aliquots containing about 1 ×10^10 plaque forming units (pfu) were added to the beads and the mixtures rotated gently for 2 hrs at room temperature. After washing the beads five times in TBST, phage were eluted with 300 μl of 50 mM glycine buffer (pH 2.2) for 10 min at room temperature. Eluted phage were immediately neutralized with 8 μl 2M Tris base that had not been pH-adjusted, mixed and stored at 4° C. Phage isolated by biopanning were amplified by mixing equal volumes of eluted phage and an overnight culture of E. coli strain JS5, diluting the mixture in 20 ml 2xYT containing tetracycline (12.0 μg/ml), and incubating overnight with shaking at 37° C. The resulting phage lysates were cleared of cell debris by centrifugation for 5 min in a microfuge, and 100 μl of the resulting supernatant lysate was used for a subsequent round of biopanning. All phage titering was carried out using JS5 bacteria plated on 2xYT top agar and agar plates.
# Several random phage clones also were isolated from the evolved library, to represent non-binding clones.
row,Molecule,binding result
1,LLQMCSPGWVGHCNDWPRDEYANNPPNPVVDRQALTPP (not shown: M13 phage pIII coat protein) [phage clone B17],binds
2,DLEVCRGGWVGHCKDWIWDEYARNPRYPDPQRKEVKSP (not shown: M13 phage pIII coat protein) [phage clone B10],binds
3,AKVVCRNGWVGHCSAWLTDEYESNPNTRIPNTFDMKTP (not shown: M13 phage pIII coat protein) [phage clone B21],binds
4,DVHECRPGWVGHCKDWLSDEYASNRRSPEPHRNYPIPP (not shown: M13 phage pIII coat protein) [phage clone B1],binds
5,YSDVCRRGWVGHCEDWLGDEYSSQPSYALPHSTSLNPR (not shown: M13 phage pIII coat protein) [phage clone B18],binds
6,SLEPCRGGWVGHCNEWQRDEYAINPKWPNAPIEDPNPL (not shown: M13 phage pIII coat protein) [phage clone B6],binds
7,EGEVCLPGWVGHCKYWLMDEYANIPRNPTPRSNELKPP (not shown: M13 phage pIII coat protein) [phage clone B13],binds
8,QVDTCTRGWVGHCNAWMGDEYAKTPGLPMPQSDYLKPR (not shown: M13 phage pIII coat protein) [phage clone B15],binds
9,GKEVCRRGWVGHCQEWPMDEYTRNPSHPVPHNSRHKTP (not shown: M13 phage pIII coat protein) [phage clone B3],binds
10,DLEGCRLGWVGHCNVWGGDEYTKRTSHSVPPSHKSKLL (not shown: M13 phage pIII coat protein) [phage clone B19],binds
11,DLAGCRRGWVGHCSEWLRDEYTSNPRYPVAPSYRLQPP (not shown: M13 phage pIII coat protein) [phage clone B20],binds
12,DFEDCQGGWVGHCNDWLGDEYARHPRYGATQTLSVNRH (not shown: M13 phage pIII coat protein) [phage clone B9],binds
13,DVEVCRGGWVGHCNAWLRDEYNRQPKKPVQQQVVYSTR (not shown: M13 phage pIII coat protein) [phage clone B16],binds

# Target: T1, chimeric Ig-EPOR protein
# Assay: peptide inhibition ELISA: Ig-EPOR binding to EPO-coated plates
# Settings: not given
# From the text: Thus, the consensus 12-mer peptide sequence given by SEQ ID NO:12 likely was necessary but not sufficient to create synthetic peptides having high affinity for the EPOR.
row,Molecule,IC50 [nM]
1,"REGCRRGWVGQCKAWFN (disulfide 4-12 (inferred), N-terminal truncation of ERB1-7) [17-mer peptide 7N-1]",91
